Data as given in IntAct's records for PubMed 26859457.

These substances were tested against Unc5b, Q8K1S3-1.
Chain of Unc5b, Q8K1S3-1 (Q8K1S3 whole entry): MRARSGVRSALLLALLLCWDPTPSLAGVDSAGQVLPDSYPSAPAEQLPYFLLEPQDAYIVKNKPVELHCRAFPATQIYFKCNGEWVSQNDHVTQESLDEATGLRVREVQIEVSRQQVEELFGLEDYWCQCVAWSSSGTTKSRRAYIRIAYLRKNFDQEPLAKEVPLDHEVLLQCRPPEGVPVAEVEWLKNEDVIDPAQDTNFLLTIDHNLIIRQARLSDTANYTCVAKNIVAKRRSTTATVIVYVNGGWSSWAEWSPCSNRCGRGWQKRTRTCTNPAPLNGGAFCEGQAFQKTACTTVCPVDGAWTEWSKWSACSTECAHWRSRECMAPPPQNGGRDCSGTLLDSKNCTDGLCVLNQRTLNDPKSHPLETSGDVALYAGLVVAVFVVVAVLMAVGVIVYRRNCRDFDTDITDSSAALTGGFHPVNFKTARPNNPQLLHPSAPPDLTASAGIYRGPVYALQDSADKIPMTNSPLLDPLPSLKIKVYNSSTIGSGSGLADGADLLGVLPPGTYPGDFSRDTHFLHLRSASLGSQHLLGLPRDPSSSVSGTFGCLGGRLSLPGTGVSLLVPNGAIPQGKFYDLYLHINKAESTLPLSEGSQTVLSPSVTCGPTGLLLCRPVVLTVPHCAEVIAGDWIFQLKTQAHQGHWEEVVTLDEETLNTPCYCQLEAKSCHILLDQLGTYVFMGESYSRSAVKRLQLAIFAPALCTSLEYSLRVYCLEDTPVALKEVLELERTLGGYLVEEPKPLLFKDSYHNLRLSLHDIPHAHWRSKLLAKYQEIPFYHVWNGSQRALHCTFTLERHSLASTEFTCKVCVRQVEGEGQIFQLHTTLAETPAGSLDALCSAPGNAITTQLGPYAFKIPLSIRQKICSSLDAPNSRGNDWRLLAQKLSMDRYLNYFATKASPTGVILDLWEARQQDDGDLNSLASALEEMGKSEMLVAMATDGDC

Row | Substance | effect of a mutation on the interaction
1 | Netrin-1 (Mus musculus) (from UniProt O09118) R348A;R349A | disrupting interaction strength
2 | Netrin-1 (Mus musculus) (from UniProt O09118) R351A;N353A | decreasing interaction strength

Each substance was assayed against unc5b_rat Unc5b (UniProt O08722).
Chain of unc5b_rat Unc5b (O08722 whole entry): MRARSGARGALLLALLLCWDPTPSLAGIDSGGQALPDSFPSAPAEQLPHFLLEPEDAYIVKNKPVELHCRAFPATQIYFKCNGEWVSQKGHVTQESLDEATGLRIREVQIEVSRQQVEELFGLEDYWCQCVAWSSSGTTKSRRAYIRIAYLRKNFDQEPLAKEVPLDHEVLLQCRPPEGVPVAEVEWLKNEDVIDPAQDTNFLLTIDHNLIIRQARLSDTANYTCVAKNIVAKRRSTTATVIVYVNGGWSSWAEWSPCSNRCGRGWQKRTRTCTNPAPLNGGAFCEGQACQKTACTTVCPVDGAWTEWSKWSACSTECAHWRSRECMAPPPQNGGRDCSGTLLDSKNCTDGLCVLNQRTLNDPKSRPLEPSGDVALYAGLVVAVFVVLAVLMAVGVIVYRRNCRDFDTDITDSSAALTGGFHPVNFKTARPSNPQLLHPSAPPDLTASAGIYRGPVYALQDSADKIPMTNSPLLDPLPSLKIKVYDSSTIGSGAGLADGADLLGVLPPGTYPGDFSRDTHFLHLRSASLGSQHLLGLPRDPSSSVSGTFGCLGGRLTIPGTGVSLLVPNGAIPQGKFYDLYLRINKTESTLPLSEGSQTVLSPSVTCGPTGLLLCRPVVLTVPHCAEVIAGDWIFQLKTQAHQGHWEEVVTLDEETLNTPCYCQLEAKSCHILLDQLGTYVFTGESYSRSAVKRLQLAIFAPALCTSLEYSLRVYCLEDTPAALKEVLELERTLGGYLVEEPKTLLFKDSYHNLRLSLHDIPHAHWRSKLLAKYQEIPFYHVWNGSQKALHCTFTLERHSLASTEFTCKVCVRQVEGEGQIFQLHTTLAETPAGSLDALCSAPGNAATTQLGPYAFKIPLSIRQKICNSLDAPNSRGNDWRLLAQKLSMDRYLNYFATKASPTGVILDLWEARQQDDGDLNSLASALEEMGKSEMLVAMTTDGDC

Row | Substance | effect of a mutation on the interaction
3 | Netrin-1 (Homo sapiens) (from UniProt O95631) K358L | decreasing interaction strength
4 | Netrin-1 (Homo sapiens) (from UniProt O95631) N353A | decreasing interaction strength
5 | Netrin-1 (Homo sapiens) (from UniProt O95631) R348A;R349A;R351A | decreasing interaction strength
6 | Netrin-1 (Homo sapiens) (from UniProt O95631) R348W | with no effect
7 | Netrin-1 (Homo sapiens) (from UniProt O95631) S360A | decreasing interaction strength
8 | Netrin-1 (Homo sapiens) (from UniProt O95631) Y357F | with no effect
